Measured values: patent publication US20080220459

Tests used:
[1] = test system: bovine collagen alpha1 (IX) in bovine nasal cartilage explants
[2] = molecular target: human collagen alpha1 (IX) in human articular cartilage (UniProt P20849)
human collagen alpha1 (IX) in human articular cartilage, sequence (P20849 24-921): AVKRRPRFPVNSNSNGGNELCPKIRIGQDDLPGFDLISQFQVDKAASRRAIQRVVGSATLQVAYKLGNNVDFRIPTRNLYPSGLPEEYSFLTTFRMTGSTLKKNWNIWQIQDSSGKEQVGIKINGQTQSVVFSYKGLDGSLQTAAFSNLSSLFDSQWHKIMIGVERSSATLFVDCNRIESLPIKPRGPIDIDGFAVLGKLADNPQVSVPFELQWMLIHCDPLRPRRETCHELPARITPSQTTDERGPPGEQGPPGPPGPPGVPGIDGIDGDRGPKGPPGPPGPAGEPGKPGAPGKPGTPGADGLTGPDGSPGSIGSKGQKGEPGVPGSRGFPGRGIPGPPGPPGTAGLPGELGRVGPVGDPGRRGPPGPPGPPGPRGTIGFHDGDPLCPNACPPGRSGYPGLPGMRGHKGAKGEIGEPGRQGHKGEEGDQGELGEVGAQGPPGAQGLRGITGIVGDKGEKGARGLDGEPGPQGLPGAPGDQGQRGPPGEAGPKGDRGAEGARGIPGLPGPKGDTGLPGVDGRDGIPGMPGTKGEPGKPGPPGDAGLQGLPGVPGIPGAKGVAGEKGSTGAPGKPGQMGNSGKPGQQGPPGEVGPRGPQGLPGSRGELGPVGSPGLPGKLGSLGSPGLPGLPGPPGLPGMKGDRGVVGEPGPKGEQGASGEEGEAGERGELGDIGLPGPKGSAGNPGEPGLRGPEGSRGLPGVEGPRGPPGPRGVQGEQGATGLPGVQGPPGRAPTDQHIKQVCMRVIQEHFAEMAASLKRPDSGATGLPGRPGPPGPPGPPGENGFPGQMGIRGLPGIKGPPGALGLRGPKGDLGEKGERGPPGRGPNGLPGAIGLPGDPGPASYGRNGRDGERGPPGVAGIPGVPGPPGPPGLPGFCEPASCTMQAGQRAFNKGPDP

Substance: matrix metalloproteinase 13 (MMP-13)
- cleavage of collagen alpha1 (IX) in cartilage explants (Western blot and LC-MS of released fragments) [1]: Bovine nasal cartilage explants were digested with MMP-13 and indeed the enzyme cleaved collagen α1 (IX)
- cleavage of collagen alpha1 (IX) in human articular cartilage (Western blot and LC-MS of the released 30 kD fragment) [2]: a peptide representing a potentially new cleavage site CHELPARITPSQ^263-COOH (SEQ ID NO:6) NH2-TTDERGPP- (SEQ ID NO:7)
